Test results as given in PMC1890003.

Target: Δgpαf-BOF (recombinant nonglycosylated pro-α factor derivative labeled with BODIPY FL) (yeast)
Test: fluorescence polarisation; BOF anisotropy; Δgpαf-BOF (0.2 μM in buffer A: 50 mM HEPES pH 7.5, 40 mM KOAc, 5 mM MgCl2) titrated at 4°C with PDI or BiP; a separate sample for each concentration

Kd	Substance
0.9 µM	oxidized protein disulfide isomerase (from UniProt P07237 18-508) (enzyme)
0.03 µM	reduced protein disulfide isomerase (from UniProt P07237 18-508) (enzyme)
